# T1: DLG3_1, Q92796
# T1 sequence (Q92796 125-227, limits assumed, looked up): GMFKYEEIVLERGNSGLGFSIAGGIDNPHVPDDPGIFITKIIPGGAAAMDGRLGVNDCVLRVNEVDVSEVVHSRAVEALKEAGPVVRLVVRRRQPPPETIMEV
# T2: GRIP1_3, Q9Y3R0
# T2 sequence (Q9Y3R0 247-346, limits assumed, looked up): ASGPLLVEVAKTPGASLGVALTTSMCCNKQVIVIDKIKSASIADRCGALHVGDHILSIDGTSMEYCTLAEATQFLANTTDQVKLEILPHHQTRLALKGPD
# T3: DVL3, Q92997
# T3 sequence (Q92997 244-331, limits assumed, looked up): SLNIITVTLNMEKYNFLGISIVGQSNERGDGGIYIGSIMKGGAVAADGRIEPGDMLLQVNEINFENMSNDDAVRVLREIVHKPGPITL
# T4: APBA2_2, Q99767
# T4 sequence (Q99767 654-744, limits assumed, looked up): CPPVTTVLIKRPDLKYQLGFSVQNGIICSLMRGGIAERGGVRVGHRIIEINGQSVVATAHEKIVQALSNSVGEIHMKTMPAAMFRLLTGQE
# T5: SHANK1, Q9Y566
# T5 sequence (Q9Y566 658-767, limits assumed, looked up): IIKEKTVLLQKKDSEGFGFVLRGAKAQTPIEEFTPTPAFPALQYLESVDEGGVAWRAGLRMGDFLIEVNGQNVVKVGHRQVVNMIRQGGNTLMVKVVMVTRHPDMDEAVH
# T6: NHERF3_1, Q5T2W1
# T6 sequence (Q5T2W1 4-100, limits assumed, looked up): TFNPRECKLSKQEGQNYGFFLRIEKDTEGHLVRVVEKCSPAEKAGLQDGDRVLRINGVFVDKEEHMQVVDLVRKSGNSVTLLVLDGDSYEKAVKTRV
# T7: PDZD2_2, O15018
# T7 sequence (O15018 329-429, limits assumed, looked up): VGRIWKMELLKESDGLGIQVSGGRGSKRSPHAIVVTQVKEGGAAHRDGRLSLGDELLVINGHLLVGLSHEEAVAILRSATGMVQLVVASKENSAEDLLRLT
# T8: SNTG1, Q9NSN8
# T8 sequence (Q9NSN8 52-150, limits assumed, looked up): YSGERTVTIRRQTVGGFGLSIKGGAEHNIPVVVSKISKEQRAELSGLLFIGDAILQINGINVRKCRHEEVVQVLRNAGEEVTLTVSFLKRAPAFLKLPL
# T9: GRIP1_4, Q9Y3R0
# T9 sequence (Q9Y3R0 467-571, limits assumed, looked up): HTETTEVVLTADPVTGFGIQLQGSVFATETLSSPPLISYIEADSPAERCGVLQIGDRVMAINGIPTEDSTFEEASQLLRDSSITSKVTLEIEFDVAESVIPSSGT
# B1: MYO18A, Q92614 (peptide)
# chain: TEAKLTETNA
# B2: ABCC4, O15439 (peptide)
# chain: STLTIFETAL
# B3: ARHGAP17, Q68EM7 (peptide)
# chain: IDNDTESTAL
# What was measured:
# Assay in all cases: holdup assay
# Parameters in all cases: key: below the threshold = too weak to quantify, mostly under pKd 3.1 to 4
# TJP1_2, Q07157 = molecular target: TJP1_2, Q07157
# TJP1_2, Q07157, sequence (Q07157 181-274): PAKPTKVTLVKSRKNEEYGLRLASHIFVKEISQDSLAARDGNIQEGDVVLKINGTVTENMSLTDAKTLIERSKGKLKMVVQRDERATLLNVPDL
# PDLIM1, O00151 = molecular target: PDLIM1, O00151
# PDLIM1, O00151, sequence (O00151 1-87): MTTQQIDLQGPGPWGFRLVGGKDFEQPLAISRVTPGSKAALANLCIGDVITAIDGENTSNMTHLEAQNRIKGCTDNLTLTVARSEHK
# NHERF4_2, Q86UT5 = molecular target: NHERF4_2, Q86UT5
# NHERF4_2, Q86UT5, sequence (Q86UT5 220-308): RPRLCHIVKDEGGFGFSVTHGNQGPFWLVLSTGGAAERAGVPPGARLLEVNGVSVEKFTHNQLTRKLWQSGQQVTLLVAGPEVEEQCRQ
# GRIP2_7, Q9C0E4 = molecular target: GRIP2_7, Q9C0E4
# GRIP2_7, Q9C0E4, sequence (Q9C0E4 934-1023): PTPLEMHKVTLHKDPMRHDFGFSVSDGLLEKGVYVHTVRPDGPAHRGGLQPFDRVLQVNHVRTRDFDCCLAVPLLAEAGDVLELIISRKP
# IL16_1, Q14005 = molecular target: IL16_1, Q14005
# IL16_1, Q14005, sequence (Q14005 210-306): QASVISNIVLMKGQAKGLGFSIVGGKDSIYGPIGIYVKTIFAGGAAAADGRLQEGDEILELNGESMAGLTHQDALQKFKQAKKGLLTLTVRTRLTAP
# DLG3_1, Q92796 = molecular target: T1, DLG3_1, Q92796
# GRIP2_6, Q9C0E4 = molecular target: GRIP2_6, Q9C0E4
# GRIP2_6, Q9C0E4, sequence (Q9C0E4 648-740): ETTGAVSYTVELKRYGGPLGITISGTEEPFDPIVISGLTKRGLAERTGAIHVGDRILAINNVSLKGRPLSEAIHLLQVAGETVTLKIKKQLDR
# FRMPD2_2, Q68DX3 = molecular target: FRMPD2_2, Q68DX3
# FRMPD2_2, Q68DX3, sequence (Q68DX3 944-1038): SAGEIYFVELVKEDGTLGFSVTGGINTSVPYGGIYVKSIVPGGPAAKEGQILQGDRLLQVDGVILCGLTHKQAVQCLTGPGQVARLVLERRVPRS
# GRIP1_3, Q9Y3R0 = molecular target: T2, GRIP1_3, Q9Y3R0
# Inadl_2, Q8NI35 = molecular target: Inadl_2, Q8NI35
# Inadl_2, Q8NI35, sequence (Q8NI35 238-335): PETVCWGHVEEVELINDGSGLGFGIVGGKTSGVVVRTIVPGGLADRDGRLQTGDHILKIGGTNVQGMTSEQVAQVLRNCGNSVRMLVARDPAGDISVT
# TJP2_1, Q9UDY2 = molecular target: TJP2_1, Q9UDY2
# TJP2_1, Q9UDY2, sequence (Q9UDY2 24-128): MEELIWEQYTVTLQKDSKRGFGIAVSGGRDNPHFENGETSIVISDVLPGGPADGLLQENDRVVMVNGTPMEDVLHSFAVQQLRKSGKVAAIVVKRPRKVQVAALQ
# DVL3, Q92997 = molecular target: T3, DVL3, Q92997
# APBA2_2, Q99767 = molecular target: T4, APBA2_2, Q99767
# HTRA2, O43464 = molecular target: HTRA2, O43464
# HTRA2, O43464, sequence (O43464 355-458): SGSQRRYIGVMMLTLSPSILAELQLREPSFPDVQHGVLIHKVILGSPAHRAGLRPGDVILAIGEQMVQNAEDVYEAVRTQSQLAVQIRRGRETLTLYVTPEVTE
# LNX1_1, Q8TBB1 = molecular target: LNX1_1, Q8TBB1
# LNX1_1, Q8TBB1, sequence (Q8TBB1 261-371): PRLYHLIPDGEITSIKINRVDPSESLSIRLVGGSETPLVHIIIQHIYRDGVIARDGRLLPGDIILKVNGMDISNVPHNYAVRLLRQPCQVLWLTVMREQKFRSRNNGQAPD
# HTRA1, Q92743 = molecular target: HTRA1, Q92743
# HTRA1, Q92743, sequence (Q92743 360-477): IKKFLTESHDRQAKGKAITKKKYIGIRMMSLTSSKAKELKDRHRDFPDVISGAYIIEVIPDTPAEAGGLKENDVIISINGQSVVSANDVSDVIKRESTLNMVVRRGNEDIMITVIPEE
# Inadl_4, Q8NI35 = molecular target: Inadl_4, Q8NI35
# Inadl_4, Q8NI35, sequence (Q8NI35 547-651): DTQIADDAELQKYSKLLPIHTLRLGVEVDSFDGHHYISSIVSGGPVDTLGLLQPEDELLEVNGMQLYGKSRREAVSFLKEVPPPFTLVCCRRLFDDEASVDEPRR
# MAGI1_2, Q96QZ7 = molecular target: MAGI1_2, Q96QZ7
# MAGI1_2, Q96QZ7, sequence (Q96QZ7 456-580): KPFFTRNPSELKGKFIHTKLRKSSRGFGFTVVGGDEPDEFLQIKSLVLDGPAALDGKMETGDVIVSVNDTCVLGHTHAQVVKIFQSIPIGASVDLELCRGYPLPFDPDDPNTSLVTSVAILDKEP
# LDB3, O75112 = molecular target: LDB3, O75112
# LDB3, O75112, sequence (O75112 1-94): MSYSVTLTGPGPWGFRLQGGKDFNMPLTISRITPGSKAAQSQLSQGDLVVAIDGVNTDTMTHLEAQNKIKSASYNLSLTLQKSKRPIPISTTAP
# SHANK1, Q9Y566 = molecular target: T5, SHANK1, Q9Y566
# NHERF3_1, Q5T2W1 = molecular target: T6, NHERF3_1, Q5T2W1
# DLG5_1, Q8TDM6 = molecular target: DLG5_1, Q8TDM6
# DLG5_1, Q8TDM6, sequence (Q8TDM6 617-713): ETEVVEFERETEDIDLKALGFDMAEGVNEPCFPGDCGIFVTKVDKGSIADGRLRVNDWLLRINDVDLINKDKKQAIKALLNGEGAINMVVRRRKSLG
# PDZD2_2, O15018 = molecular target: T7, PDZD2_2, O15018
# GOPC, Q9HD26 = molecular target: GOPC, Q9HD26
# FRMPD3, Q5JV73 = molecular target: FRMPD3, Q5JV73
# FRMPD3, Q5JV73, sequence (Q5JV73 12-100): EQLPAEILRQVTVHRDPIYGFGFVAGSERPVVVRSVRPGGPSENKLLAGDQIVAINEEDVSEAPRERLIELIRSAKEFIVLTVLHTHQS
# MAGI2_5, Q86UL8 = molecular target: MAGI2_5, Q86UL8
# MAGI2_5, Q86UL8, sequence (Q86UL8 915-1017): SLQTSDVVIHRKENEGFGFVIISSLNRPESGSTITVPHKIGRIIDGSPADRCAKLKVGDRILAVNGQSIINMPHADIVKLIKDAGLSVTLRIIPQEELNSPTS
# SNTG1, Q9NSN8 = molecular target: T8, SNTG1, Q9NSN8
# GRIP1_4, Q9Y3R0 = molecular target: T9, GRIP1_4, Q9Y3R0
# [1] = plain residues with an end cap or a label only (N-terminal biotin on a linker: ahx)
# [2] = plain residues with an end cap or a label only (N-terminal biotin on a linker: ttds)
binder,measurement,setting,value
B1,pKd,"TJP1_2, Q07157; [1]",below the threshold
same,pKd,"PDLIM1, O00151; [1]",below the threshold
same,pKd,"NHERF4_2, Q86UT5; [1]",below the threshold
same,pKd,"GRIP2_7, Q9C0E4; [1]",below the threshold
same,pKd,"IL16_1, Q14005; [1]",below the threshold
same,pKd,"DLG3_1, Q92796; [1]",below the threshold
same,pKd,"GRIP2_6, Q9C0E4; [1]",below the threshold
same,pKd,"FRMPD2_2, Q68DX3; [1]",below the threshold
same,pKd,"GRIP1_3, Q9Y3R0; [1]",below the threshold
same,pKd,"Inadl_2, Q8NI35; [1]",below the threshold
same,pKd,"TJP2_1, Q9UDY2; [1]",below the threshold
same,pKd,"DVL3, Q92997; [1]",below the threshold
same,pKd,"APBA2_2, Q99767; [1]",below the threshold
same,pKd,"HTRA2, O43464; [1]",below the threshold
same,pKd,"LNX1_1, Q8TBB1; [1]",below the threshold
same,pKd,"HTRA1, Q92743; [1]",below the threshold
same,pKd,"Inadl_4, Q8NI35; [1]",below the threshold
same,pKd,"MAGI1_2, Q96QZ7; [1]",below the threshold
same,pKd,"LDB3, O75112; [1]",below the threshold
same,pKd,"SHANK1, Q9Y566; [1]",below the threshold
same,pKd,"NHERF3_1, Q5T2W1; [1]",below the threshold
same,pKd,"DLG5_1, Q8TDM6; [1]",below the threshold
same,pKd,"PDZD2_2, O15018; [1]",below the threshold
same,pKd,"GOPC, Q9HD26; [1]",below the threshold
same,pKd,"FRMPD3, Q5JV73; [1]",below the threshold
same,pKd,"MAGI2_5, Q86UL8; [1]",below the threshold
same,pKd,"SNTG1, Q9NSN8; [1]",below the threshold
same,pKd,"GRIP1_4, Q9Y3R0; [1]",below the threshold
B2,pKd,"TJP1_2, Q07157; [2]",below the threshold
same,pKd,"PDLIM1, O00151; [2]",3.85
same,pKd,"NHERF4_2, Q86UT5; [2]",below the threshold
same,pKd,"GRIP2_7, Q9C0E4; [2]",below the threshold
same,pKd,"IL16_1, Q14005; [2]",3.5
same,pKd,"DLG3_1, Q92796; [2]",3.84
same,pKd,"GRIP2_6, Q9C0E4; [2]",below the threshold
same,pKd,"FRMPD2_2, Q68DX3; [2]",3.77
same,pKd,"GRIP1_3, Q9Y3R0; [2]",below the threshold
same,pKd,"Inadl_2, Q8NI35; [2]",below the threshold
same,pKd,"TJP2_1, Q9UDY2; [2]",below the threshold
same,pKd,"DVL3, Q92997; [2]",below the threshold
same,pKd,"APBA2_2, Q99767; [2]",below the threshold
same,pKd,"HTRA2, O43464; [2]",3.68
same,pKd,"LNX1_1, Q8TBB1; [2]",3.59
same,pKd,"HTRA1, Q92743; [2]",below the threshold
same,pKd,"Inadl_4, Q8NI35; [2]",below the threshold
same,pKd,"MAGI1_2, Q96QZ7; [2]",3.86
same,pKd,"LDB3, O75112; [2]",below the threshold
same,pKd,"SHANK1, Q9Y566; [2]",5.1
same,pKd,"NHERF3_1, Q5T2W1; [2]",6.21
same,pKd,"DLG5_1, Q8TDM6; [2]",below the threshold
same,pKd,"PDZD2_2, O15018; [2]",3.65
same,pKd,"GOPC, Q9HD26; [2]",4.52
same,pKd,"FRMPD3, Q5JV73; [2]",3.6
same,pKd,"MAGI2_5, Q86UL8; [2]",4.69
same,pKd,"SNTG1, Q9NSN8; [2]",4.89
same,pKd,"GRIP1_4, Q9Y3R0; [2]",below the threshold
B3,pKd,"TJP1_2, Q07157; [2]",below the threshold
same,pKd,"PDLIM1, O00151; [2]",below the threshold
same,pKd,"NHERF4_2, Q86UT5; [2]",below the threshold
same,pKd,"GRIP2_7, Q9C0E4; [2]",below the threshold
same,pKd,"IL16_1, Q14005; [2]",below the threshold
same,pKd,"DLG3_1, Q92796; [2]",below the threshold
same,pKd,"GRIP2_6, Q9C0E4; [2]",below the threshold
same,pKd,"FRMPD2_2, Q68DX3; [2]",below the threshold
same,pKd,"GRIP1_3, Q9Y3R0; [2]",below the threshold
same,pKd,"Inadl_2, Q8NI35; [2]",below the threshold
same,pKd,"TJP2_1, Q9UDY2; [2]",below the threshold
same,pKd,"DVL3, Q92997; [2]",below the threshold
same,pKd,"APBA2_2, Q99767; [2]",below the threshold
same,pKd,"HTRA2, O43464; [2]",below the threshold
same,pKd,"LNX1_1, Q8TBB1; [2]",below the threshold
same,pKd,"HTRA1, Q92743; [2]",3.65
same,pKd,"Inadl_4, Q8NI35; [2]",below the threshold
same,pKd,"MAGI1_2, Q96QZ7; [2]",below the threshold
same,pKd,"LDB3, O75112; [2]",below the threshold
same,pKd,"SHANK1, Q9Y566; [2]",5.53
same,pKd,"NHERF3_1, Q5T2W1; [2]",5.25
same,pKd,"DLG5_1, Q8TDM6; [2]",below the threshold
same,pKd,"PDZD2_2, O15018; [2]",4.11
same,pKd,"GOPC, Q9HD26; [2]",3.86
same,pKd,"FRMPD3, Q5JV73; [2]",below the threshold
same,pKd,"MAGI2_5, Q86UL8; [2]",4.47
same,pKd,"SNTG1, Q9NSN8; [2]",below the threshold
same,pKd,"GRIP1_4, Q9Y3R0; [2]",below the threshold
